Test [1] concerns the target T1, cloned human β-adrenergic receptor subtype 1 (human, UniProt P08588 1-477).
The target in test [2] is T2, cloned human β-adrenergic receptor subtype 2 (human, UniProt P07550 1-413).
The target in test [3] is T1, cloned human β-adrenergic receptor …. Description: radioligand displacement ((-)-[3H]CGP-12177), Ki from IC50 by Cheng-Prusoff.
Test [4] concerns the target T2, cloned human β-adrenergic receptor …. The test is described as above.

The term IC50 denotes the concentration needed to halve the response being measured. Low values mean inhibition by little substance, high ones a need for much substance. For orientation: Ki means the dissociation constant of the complex between target and ligand, obtained from inhibition or displacement.

T1 sequence (P08588 whole entry): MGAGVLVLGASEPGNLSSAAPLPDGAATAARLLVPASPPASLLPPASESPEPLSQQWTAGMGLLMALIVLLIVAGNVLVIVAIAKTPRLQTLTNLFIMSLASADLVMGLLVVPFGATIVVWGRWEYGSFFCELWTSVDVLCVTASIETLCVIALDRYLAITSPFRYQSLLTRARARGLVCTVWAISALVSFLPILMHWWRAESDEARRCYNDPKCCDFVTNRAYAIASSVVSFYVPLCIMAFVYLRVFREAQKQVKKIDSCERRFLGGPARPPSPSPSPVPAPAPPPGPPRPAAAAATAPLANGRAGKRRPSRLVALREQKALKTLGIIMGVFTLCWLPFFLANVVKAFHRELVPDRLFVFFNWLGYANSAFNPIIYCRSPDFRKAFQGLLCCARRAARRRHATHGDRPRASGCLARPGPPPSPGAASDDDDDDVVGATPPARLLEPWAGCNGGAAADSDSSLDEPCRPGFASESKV

B1: β-cardiotoxin (ligand)
chain: RKCLNTPLPLIYTTCPIGQDKCVKMTIKKLPSKYDVIRGCIDICPKSSADVEVLCCDTNKCNK
notes: also called beta-cardiotoxin; AY354198 protein
On to B1, for which the IC50 amounted to 10 µM in test [1] and 5 µM in test [2]. Moreover, the Ki in test [3] was 5.3 µM; in test [4], 2.3 µM.

The values are drawn from patent US20100062980A1 (NATIONAL UNIVERSITY OF SINGAPORE, published 2010).
